Measurements from the nanobody polyreactivity screen of Harvey et al. (2022).

assay: yeast display, Sf9 membrane polyspecificity reagent, FACS + sequencing; frameworks hold sequencing errors
In short: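 Sorting gates, low and high (top ~1%), were placed on anti-HA fluorescence to track expression and on streptavidin fluorescence to track reagent binding. A clone's polyreactivity label is taken from the gate it came out of. The reagent was 10% biotinylated, detergent-solubilized Sf9 membrane, applied for 1 hour at 4 °C to galactose-induced yeast display cells.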

| Sequence | polyreactivity (PSR sort gate) |
| --- | --- |
| QVQLVESGGGLVQAVGSLLLSCAASGSTFRYNAMGWYRQAPGKEREFVATISWTTGSSYYADSVKGRFTISRDNAKNTVYLQLNSLKPEDTAFYFCAADASLFSDFRDYDYWGQGTQVPVSS | low polyreactivity |
| QVQLVESGGGLVQAVGSLRLSCAASGFIFVRYAMGWYRQAPAKERELVAAISYSGGSTYYADSVKGRFTISRDNAKNTVYLQMNSLKPEDTAVYYCAAEYYSGGYRYYAEYGYWGQGTQVTVSS | high polyreactivity |
| QVQLVESGGGLVQAVGSLRLSCAASGFISKYYAMGWYRQAPGKERELVASISRDGSTSYADSVKGRFTISRDNAKNTVYLQMNSLKPEDTAVYYCAAPSYRTRYYYWGQGTQVTVSS | high polyreactivity |
| QVQLVESGGGLVQAVGSLRLSCAASGGIITSSAMGWYRLAPGKEWELVAAITGIGGRTYYADSVKGRFTISRDNAKNTVYLQMNSLKPEDTAVYYCKAAYTYVTAWYYYCGQGTQVTVSS | high polyreactivity |
| QVQLVESGGGLVQAVGSLRLSCAASGITFRWYTMGWYRQAPGKERELVASIRYGGGSTYYADSVKGRFTISRDNAKNTVYLQMNSLKPEDTAVYYCDAESAWTSPYDYWGQGTQVTVSS | high polyreactivity |
| QVQLVESGGGLVQAVGSLRLSCAASGLTFYSNAMGWYRQAPGKERELVATISQDGGRTYYADSVKGRFTISRDNAKNTVYLQMNSLKPEDTAVYYCAKDLYHTVGRYDYWGQGTQVTVSS | low polyreactivity |
| QVQLVESGGGLVQAVGSLRLSCAASGNIFHRNAMGWYRQAPGKEMELVAAISWSGGSTYYADSVKGRFTISRDNAKNTVYLQMNSLKPEDTAVYFCNAYYYYRFKPSHPGLRSYYWGQGTQVTVSS | high polyreactivity |
| QVQLVESGGGLVQAVGSLRLSCAASGRTFAFYTMGWYRPAHGKERELVAAINWSGTRTYYADSVKGRVTISRDKAKNTVYLQMNSLKPEDTAVYYCNVAFFSLSLRTLGVEYWGQGTQVTVST | high polyreactivity |
| QVQLVESGGGLVQAVGSLRLSCAASGSIFLLYDMGWYRPAPGKERELVAAITWSGGSTYYADSVKGRFTISRDNAKNTVYLQMNSLKPEDTAVYYCAADEPYPTAYEYWGQGTQVTVSS | low polyreactivity |
| QVQLVESGGGLVQAVGSLRLSCAASGSTFGKNAMGWYRQAPGKERELVAAISTSGTRSFYADSVKGRFTISRDTAKNTVYLQMNSLKPEDTAVYYCNAGRSSRAYYYWGQGTQVTVSS | high polyreactivity |
| QVQLVESGGGLVQAVGSLRLSCAASGSTTFYAMGSYRQAPRKEWELVATISSSAGSTYYADSVKGRFTISRDNAKNTVFFQMNSLKPEDTAVFYCNAADAVSDYPDFHIYDYWGQGTQVTVSS | low polyreactivity |
| QVQLVESGGGLVQAVGSLRLSCAASGTFARYAMGWYRQGPGKERELVAAISSRGGSTYYADSVKGRFTISRDNAENTVYLQMNSLKPEDTAVYYCAAAHQYYPEYYYWGQGTQVTVSS | high polyreactivity |
| QVQLVESGGGLVQAVGSLRLSCAPSGSTFFKYARGWYRQAPGKERELVAVITRSGGTTYYADSVKGRFTISRDNAKNTVYLLMNSLKPEDTAVYYCAAGYYQYHRGYPTFTRYDYWGQGTQVTVSS | high polyreactivity |
| QVQLVESGGGLVQAVVSLRLSCAASGGTITSYAMVSSRQAPGKERELVAAITRSGGSTYYADSVKGRFTISRDNAKNTVYLQMKSLKPEDTAVYYCAARYWHSYGYWGQGTQVTVSS | high polyreactivity |
| QVQLVESGGGLVQEGGCLRLSCAASGSIFQGYAMGWYRQAPGKERELVAAITTDGDSTYYADSVKGRFTISRDNAKNTDYLEMNSLKPVDTAVYYCAADQDGRWEGSSEQGDSWGQGTQVTVSS | low polyreactivity |
| QVQLVESGGGLVQEGGILPLSCAASGFIFGDYVMGWYRQAPGKERELVAAINRNGGRTYYADSVKGRFTISRDYAKNTVYLQMNSLKPEDTAVFYCAAVFRSDRYHWYYYWGQGTQVTVSS | high polyreactivity |
| QVQLVESGGGLVQEGGILRLICAASGIIFPIYAMGWYRQAPGKERELVAAISQSGASTYYADSVKGRFTISRDNAKNTVYLALNSLKPEDTAVYYCAALNGDGPWQLSSEEFVYWGQGTQVTVSS | low polyreactivity |
| QVQLVESGGGLVQEGGRLRLSCAASGRIFWDNDMGWYRQAPGKERELVAAISRRGGSTSYADSVKGRFTISRDNAKNTVYLQMNSLKPEDTAVFYCNVRTRWTRVRRYDYWGQVTQVTVSS | high polyreactivity |
| QVQLVESGGGLVQEGGSLRISCAASGRTFIGYTIGWYRQAPRKERELFAAITWNGGRTYYADSVKGRFTISRDNAKNTVYLQMNSLKPEVTAVYYCAAPRRVVIGGGDYWGQGTQVTVSS | high polyreactivity |
| QVQLVESGGGLVQEGGSLRLICAASGRTVNTNALGLYRQAPGKEREFVAAISRSGGSTRYADSVKGRFTISRDNAKNTVYLQLNSLKPEDTAVYYCAAVRFRPRGNEYWGQGTQVTVSS | high polyreactivity |
| QVQLVESGGGLVQEGGSLRLICAASGSTFWANAMGWYRQEPGKERELVAAISVRGGNTYYADSVKGRFTISRDNAKNTVYLQMNSLKAEVTAVYYCAARPISWTSYYDYWGQGTQVTVSS | high polyreactivity |
| QVQLVESGGGLVQEGGSLRLNCAASGRTFFRNTMGWYRQAPRKDSELFATISSSGGSTYYADSVKGLFTISRDTAKNTVYLQMNSLKPEDTAVYYCAAAPSKWYYGYGYWGQGTQVTVSS | high polyreactivity |

| Sequence | polyreactivity (PSR sort gate) |
| --- | --- |
| QVQLVESGGGLVQEGGSLRLSCAACGRTFSWYAMGWYRQAPGKDRELVAAITSGGSTYYADSVKGRFTISRDNAMNTVYLQMNSLKPEDTAVYYCAAQAYVEGVYRYDYWGQGTQVTVSS | low polyreactivity |
| QVQLVESGGGLVQEGGSLRLSCAASGFTFRYYTMGWYRQATGKERELVATITWSGGGTYYADSVKGRFTISRDNAKNTVYLQRISLKPVDSAVYYCTAGLFYKAQYGYWGKGTQVTVSS | high polyreactivity |
| QVQLVESGGGLVQEGGSLRLSCAASGFTFSLNTMGWYRQAPGKERELVAAINSGDSTYADSVKGRFTISRDNAKNTVYLQMNSLKPEDTAVYYCNADPDWWYPYNYWGQGTQVTVSS | low polyreactivity |
| QVQLVESGGGLVQEGGSLRLSCAASGIIFLWYTMGWYRQAPGKERELVATISWAGGSTYADSVKGRFTISRDNAKNTVYLPMNSLKPEDTAVYYCNTEIYVDIISDYGYWGQGTQVTVSS | low polyreactivity |
| QVQLVESGGGLVQEGGSLRLSCAASGITFGSYAMGWYRQAPGKERELVAAIDTSGDDTYYADSVKGRFTISRDNAKYTVYLQMNSLKPEDTAVYYCAADFPSAEVDYWGQGTQVTVSS | low polyreactivity |
| QVQLVESGGGLVQEGGSLRLSCAASGITFGTNAMGWYRQAPGKERELVAAIRRDGSTYYADSVKGRFTISRDNAKNTVYLQMNSLKPEDTAVYYCAATYWGRAYQGYRNLLYGYWGQGTQVTVSS | high polyreactivity |
| QVQLVESGGGLVQEGGSLRLSCAASGRIFYSNAMGWYRQAPGKERENVAAISWSGGGTYYADSVKGRFTISRDNAKNTVYLQMNSLKPEDTAVYYCAAVFGYSWAFEYDYWGQGTQVTVSS | low polyreactivity |
| QVQLVESGGGLVQEGGSLRLSCAASGRILYGYAMGWYRQAPGKERELVASITSSGGSKYADSVKGRFTISRDNAKNTVYLQMNSLKPEDTAVYYGATRRGPKWQWLTYGYWGQGTQVTVSS | low polyreactivity |
| QVQLVESGGGLVQEGGSLRLSCAASGRISYIYAMGWYRQAQGKERELVAAITRGGSTNYADSVKGCFTISRDNAKNTVYLQMNSLKPEDTAVYYCAARRRRSGGYEYDYWGQGTQVTVSS | high polyreactivity |
| QVQLVESGGGLVQEGGSLRLSCAASGRTFAYNVKGRYRQAPGKVRELVAGISFGAGSTYYADSVKGRFTISRDNAKNTVYLHMNSLKPEDTAVYYCATRRRGTRYPRGYDYWGQGTQVTVSS | high polyreactivity |
| QVQLVESGGGLVQEGGSLRLSCAASGRTFDSYTMGWYRPAPGKQRELVADITFTGGSTYYADTVKGRFTISRDNAKYIVFLQMNSLKPEDTAVYYCNADREYKWYFRYDYWGQGTQVNVSS | low polyreactivity |
| QVQLVESGGGLVQEGGSLRLSCAASGRTFSYNAMGWYSQAPGKERELFAAITGRGGSTYYADSVKGRFTISRDNAKKTVYLQMNRLKPEVTAVYYCNAVDAGYHRDRDYWGLGTQVTVSS | low polyreactivity |
| QVQLVESGGGLVQEGGSLRLSCAASGRTFYRNAMGWYRQAPGKERELVAAISSDDSTNYADSVKGRFTISRDNAKNTVYLQMNSLKPEDTAVYYCNADYYYGYEYDYWGQGSQVTVSS | low polyreactivity |
| QVQLVESGGGLVQEGGSLRLSCAASGRTFYTNAMGWYRPAPGKERELVAVISRGGTTFYADSVKGRFTISRDNAKNTVYLQMNSLKPEDTAVYYCAKQRPSGDSSSQMGSWGQGTQVTVSS | low polyreactivity |
| QVQLVESGGGLVQEGGSLRLSCAASGRTSGFNTMGWYRQAPRKERELVAAISFSGGSTYYADSVKGRFTISRDNAKNTVYLQMNSLNPEDTAVYYCNALYRYLYRSGDYWGHGTQVTVSS | low polyreactivity |
| QVQLVESGGGLVQEGGSLRLSCAASGSHFTRYVMGWYRPAPGKERELVAAITTGGSTYYADSVKGRFTISLDNAKNTVYLQMNSLKPEDTAVYYCAADRRTVSYKYNYWGQGTQVTVSS | high polyreactivity |
| QVQLVESGGGLVQEGGSLRLSCAASGSIFGVYTMGWYRPEPGKERELVAAINWGGTSTYYADSVKGRFTISRDNAKNTVYLQMNSLKPEDTAVYYCNAERRRRYPYNYWGHGTQVTVSS | high polyreactivity |
| QVQLVESGGGLVQEGGSLRLSCAASGSIFKQYAMGWYRQAPGKERELVAAISYSGGTTYYADSVKGRFTISRDNAKNTVYLQMNSMKPEDTAVYYCAAEWWILSYRFDYWGQGTQVTVSS | high polyreactivity |
| QVQLVESGGGLVQEGGSLRLSCAASGSIFNTYAMGRYRQAPGKEREMVAGITKTGSRTYYADSVKGRFTISRDNAKNTVYLQIHILKPEDTAVYYCNARIWPRSYRYDYWGQGTQVTVSS | high polyreactivity |
| QVQLVESGGGLVQEGGSLRLSCAASGSIFSTYVMGWYRQAPGKERELVAAISRRGGSTYYADSVKGRFTISRDNAKNTVYLQMNSLKPEDTAVYYCAADGTVGRRDYWGQGTQVTVSS | high polyreactivity |
| QVQLVESGGGLVQEGGSLRLSCAASGSIFWPNAMGWYRQAPGKERELVAAISWGTGSTYYADSVKGRFTISRDNAKNTVYLQINSLKPEDSAVYYCNAEYVVAFGYQYGEYDYWGQGTQVTVSS | low polyreactivity |
